Experimental data from paper PMC5389614.
Substitutions are numbered along the chain they refer to. Read-outs that look alike come from different tables or passages of the source.

T1: AgeI wt (UniProt Q9KHV6 1-278)
T1 sequence: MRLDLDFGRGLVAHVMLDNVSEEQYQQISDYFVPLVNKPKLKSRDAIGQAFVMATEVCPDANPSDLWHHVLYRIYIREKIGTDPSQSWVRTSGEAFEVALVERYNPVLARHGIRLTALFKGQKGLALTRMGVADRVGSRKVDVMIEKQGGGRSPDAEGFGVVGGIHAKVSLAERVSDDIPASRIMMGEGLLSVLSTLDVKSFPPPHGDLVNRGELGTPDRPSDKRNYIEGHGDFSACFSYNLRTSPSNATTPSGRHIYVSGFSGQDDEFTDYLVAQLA

T2: AgeI D223A (UniProt Q9KHV6 1-278, D223A)
T2 sequence: T1 sequence with D223A

T3: AgeI D177A (UniProt Q9KHV6 1-278, D177A)
T3 sequence: T1 sequence with D177A

T4: AgeI S138A (UniProt Q9KHV6 1-278, S138A)
T4 sequence: T1 sequence with S138A

T5: AgeI D142A (UniProt Q9KHV6 1-278, D142A)
T5 sequence: T1 sequence with D142A

T6: AgeI Q86A (UniProt Q9KHV6 1-278, Q86A)
T6 sequence: T1 sequence with Q86A

T7: AgeI D178A (UniProt Q9KHV6 1-278, D178A)
T7 sequence: T1 sequence with D178A

B1: SP13 (dsDNA)
DNA 1: TTCGACCGGTCGA
DNA 2: TTCGACCGGTCGA
B2: SP (specific) (dsDNA)
DNA 1: AGACCCACGCTCACCGGTTCCAGATTTATC
DNA 2: GATAAATCTGGAACCGGTGAGCGTGGGTCT
B3: SP11 (dsDNA)
DNA 1: TCGACCGGTCG
DNA 2: TCGACCGGTCG
B4: NC (non-canonical) (dsDNA)
DNA 1: B2 DNA 1 with T18A
DNA 2: B2 DNA 2 with A13T

Legend:
AgeI wt [1] = target: T1, AgeI wt; assay: X-ray crystallography
AgeI D223A = target: T2, AgeI D223A; assay: EMSA
AgeI D177A = target: T3, AgeI D177A; assay: EMSA
AgeI S138A = target: T4, AgeI S138A; assay: EMSA
AgeI D142A = target: T5, AgeI D142A; assay: EMSA
AgeI Q86A = target: T6, AgeI Q86A; assay: EMSA
AgeI wt [2] = target: T1, AgeI wt; assay: EMSA
AgeI D178A = target: T7, AgeI D178A; assay: EMSA
AgeI wt [3] = target: T1, AgeI wt; assay: X-ray crystallography; remark: listed apart in the source

Binder | Kd (AgeI D223A) [nM] | Kd (AgeI D177A) [nM] | Kd (AgeI D178A) [nM] | further results
B1 | – | – | – | binding result (AgeI wt [1]): binds
B2 | 1.2 ± 0.4 | 19.5 ± 5.6 | 1 ± 0.3 | Kd (AgeI S138A): 1.2 ± 0.2 nM; Kd (AgeI D142A): 2.4 ± 0.8 nM; Kd (AgeI Q86A): 4.6 ± 1.4 nM; Kd (AgeI wt [2]): 0.9 ± 0.2 nM
B3 | – | – | – | binding result (AgeI wt [3]): binds
B4 | ~5 | 14.7 ± 3.1 | ~5 | –
